# Measurements reported in IntAct's records for PubMed 24207126.
# B1: Eukaryotic translation initiation factor 4E-binding protein 2 (Homo sapiens), Q13542 (parent)
# chain: MSSSAGSGHQPSQSRAIPTRTVAISDAAQLPHDYCTTPGGTLFSTTPGGTRIIYDRKFLLDRRNSPMAQTPPCHLPNIPGVTSPGTLIEDSKVEVNNLNNLNNHDRKHAVGDDAQFEMDI
# Variants of: B1
# Conditions: with if4e_human EIF4E
row,effect of a mutation on the interaction,Variant
1,disrupting interaction strength,MSSSAGSGHQPSQSRAIPTRTVAISDAAQLPHDYCTTPGGTLFSTTPGGTRIIADRKFALDRRNSPMAQTPPCHLPNAAAAASPGTLIEDSKVEVNNLNNLNNHDRKHAVGDDAQFEMDI [Y54A;L59A;I78A;P79A;G80A;V81A;T82A]

# Variants of: B1
# Conditions: with if4e_human EIF4E
# Remark: another data set of the same source
row,effect of a mutation on the interaction,Variant
1,decreasing interaction strength,MSSSAGSGHQPSQSRAIPTRTVAISDAAQLPHDYCTTPGGTLFSTTPGGTRIIADRKFALDRRNSPMAQTPPCHLPNIPGVTSPGTLIEDSKVEVNNLNNLNNHDRKHAVGDDAQFEMDI [Y54A;L59A]
2,decreasing interaction strength,MSSSAGSGHQPSQSRAIPTRTVAISDAAQLPHDYCTTPGGTLFSTTPGGTRIIYDRKFLLDRRNSPMAQTPPCHLPNAAAAASPGTLIEDSKVEVNNLNNLNNHDRKHAVGDDAQFEMDI [I78A;P79A;G80A;V81A;T82A]
